# Laboratory results as given in patent US12374423B2, “Systems and methods for MHC class II epitope prediction” (priority 2017, dated 2025).
# Legend:
# [1] = biological target: T1, MHCII (I-A^b) of murine bone marrow-derived dendritic cells (Mus musculus, UniProt P14434+P14483); assay: MHCII peptidomics of BMDCs exposed to live Listeria (iTRAQ LC-MS/MS of MHCII-associated peptides); format: cell-based; conditions: for logFC (Log2 Fold Change Listeria 6 hr versus 10 min): MHCII-bound peptide abundance, BMDCs, 6 hr versus 10 min after Listeria exposure; for Peptidomics Hit: Listeria peptide found by MHCII peptidomics that matches the BOTA prediction
# T1 construct: immunoprecipitation of mature peptide-MHCII complexes with monoclonal Y3P antibody; endogenous in cells; host or cells: primary BMDCs from C57/BL6 (WT) mice, exposed to live L. monocytogenes EGDe
# T1 sequence (P14434 24-256): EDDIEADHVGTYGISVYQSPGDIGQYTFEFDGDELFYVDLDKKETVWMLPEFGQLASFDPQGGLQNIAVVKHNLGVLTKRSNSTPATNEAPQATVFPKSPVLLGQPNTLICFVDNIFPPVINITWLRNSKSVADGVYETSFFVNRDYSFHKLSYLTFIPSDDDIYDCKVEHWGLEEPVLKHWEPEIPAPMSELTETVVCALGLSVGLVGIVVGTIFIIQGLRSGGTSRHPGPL
# T1 sequence (P14483 28-265): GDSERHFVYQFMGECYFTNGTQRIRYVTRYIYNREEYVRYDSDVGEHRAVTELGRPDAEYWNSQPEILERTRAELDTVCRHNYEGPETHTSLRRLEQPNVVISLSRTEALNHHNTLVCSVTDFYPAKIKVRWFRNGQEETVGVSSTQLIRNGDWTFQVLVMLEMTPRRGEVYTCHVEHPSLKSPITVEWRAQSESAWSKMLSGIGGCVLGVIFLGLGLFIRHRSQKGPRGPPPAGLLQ
# Excerpt: To validate BOTA, Applicants tested its performance in predicting MHCII-restricted epitopes from Listeria monocytogenes, one of the most common foodborne pathogens associated with a relatively high mortality rate (Scallan et al., 2011). Despite the epidemiological impact of listeriosis, the number of experimentally validated CD4 T cell epitopes encoded within the Listeria genome is limited. Thus, Applicants first sought to identify MHCII-associated peptides in BMDCs exposed to live Listeria by peptidomics. In these experiments, primary BMDCs were exposed to live L. monocytogenes for 10 minutes or 6 hours prior to immunoprecipitation of mature peptide-MHCII complexes with monoclonal Y3P antibody (Janeway et al., 1984). Associated peptides from biological replicates of the 10-minute and 6-hour timepoints were analyzed using mass spectrometry (LC-MS/MS) (FIGS. 9A and B).
# Immuno-affinity purification of MHCII complexes. Bone marrow was harvested from C57/BL6 (WT), Atg16l1^f/f×CD11c-Cre (Conway et al., 2013b), and Atg5^f/f×CD11c-Cre (Conway et al., 2013a) mice. BMDCs were differentiated from bone marrow for seven days in antibiotic-free DMEM supplemented with 20% FBS and GM-CSF (2% conditioned TOPO medium). In parallel, L. monocytogenes strain EGDe (ATCC BA-679) was cultured overnight in BHI medium, washed in PBS, and cocultured with BMDCs at an MOI of approximately 100:1 for 30 minutes. Tissue culture dishes containing cocultures were washed in PBS and cultured for an additional 10 minutes or 6 hours in DC media containing gentamicin (30 μg/ml). BMDCs were then harvested by scraping, washed in PBS, and lysed in 1% NP-40, 4 mM MgCl2, 6 μg/ml DNaseI from bovine pancreas (Sigma Aldrich), and PBS pH 7.4 at 250×10^6 cells/4 ml lysis buffer/sample. Clarified lysates were subjected to immunoprecipitation overnight at 4° C. with gentle rotation. Immunoprecipitation was performed with NHS Mag Sepharose (GE Healthcare) covalently coupled to anti-H2-IA (clone Y3P (Janeway et al., 1984)). Each sample contained 130 μl packed beads and approximately 650 μg antibody. Beads were then washed twice in PBS containing 0.1% NP-40 and three times in PBS.
# MHC-peptide elution and desalting. Peptides were eluted from MHC complexes and desalted on in-house-built Empore C18 StageTips (3M, 2315) as described previously (Rappsilber et al., 2007). Sample loading, washes, and elution were performed on a tabletop centrifuge at a maximum speed of 2,000-3,500×g. Briefly, StageTips were equilibrated with 2×100 μL washes of methanol, 2×50 μL washes of 50% acetonitrile/0.1% formic acid (FA), and 2×100 μL washes of 1% FA. In a tube, the dried beads from MHC-associated peptide IPs were thawed at 4° C., reconstituted in 50 μL 3% ACN/5% FA, and loaded onto StageTips. The beads were washed with 50 μL 1% FA, and peptides were further eluted using two rounds of 5-minute incubations in 10% acetic acid. The combined wash and elution volumes were combined and loaded onto StageTips. The tubes containing the IP beads were washed again with 50 μL 1% FA, and this volume was also loaded onto StageTips. Peptides were washed twice on the StageTip with 100 μL 1% FA. Peptides were eluted using a step gradient of 20 μL 20% ACN/0.1% FA, 20 μL 40% ACN/0.1% FA, and 20 μL 60% ACN/0.1% FA. Step elutions were combined and dried to completion.
# iTRAQ 4-plex labeling for quantitative proteomics.
# CD4 T cells = assay: IFNγ ELISPOT of splenocytes from Listeria-infected mice restimulated with synthetic peptides; format: in vivo, mouse; conditions: seven days after i.p. Listeria infection; splenocytes restimulated with 100 nM peptide
# Excerpt: FIG. 10—BOTA and MHCII peptidomics accurately predict immunodominance in vivo. […] At day 7, splenocytes were harvested and restimulated with the indicated peptides for quantification of the T cell response by IFNγ ELISPOT. Data represent the mean number of spots per 1×10^5 CD4 T cells±sd for n=6 mice.
# Given that MHCII peptidomics and BOTA successfully identified Listeria peptides and features associated with efficient antigen presentation, Applicants sought to measure T cell responses to these epitopes in vivo. To quantify the CD4 T cell response directed to the top eight candidate Listeria epitopes, mice were sacrificed seven days after intraperitoneal (i.p.) infection with Listeria. T cells were restimulated in vitro with synthetic peptides, and IFN-γ responses were enumerated by ELISPOT. […] The remaining four epitopes elicited weaker responses near the limit of detection for ELISPOT (FIG. 10B).
# Listeria infection and ELISPOT. L. monocytogenes strain EGDe (ATCC BA-679) was grown to log phase in BHI, washed in PBS, and used to inoculate mice by i.p. injection with a dose of 1×10^4 CFU/200 μl/mouse. Seven days after infection, spleens were harvested, red blood cells were lysed, and single cell suspensions were replated at 2.5×10^5/200 μl/well on 96-well ELISPOT plates (Millipore MAIPS4510) precoated with anti-IFNγ (BD Pharmingen 551881) at a concentration of 5 μg/ml in PBS. Peptides were added at a concentration of 100 nM to restimulate splenocytes overnight. After stimulation, plates were washed, blocked, and incubated with biotinylated anti-IFNγ (BD Pharmingen 551881) at a concentration of 2 μg/ml and streptavidin-AKP (BD Pharmingen 554065) at a dilution of 1:1000. After 60 minutes, plates were washed and developed with 3-amino-9-ethylcarbazole (AEC, Sigma-Aldrich, A6926). IFNγ-secreting cells were scanned and enumerated using an Immunospot Analyzer ELISpot reader (CTL). All samples were run in triplicate. The following peptides were synthesized by New England Peptide: lmo2185_293-312 […] (SEQ ID NO: 14986), lmo0202_189-204 […] (SEQ ID NO: 14981), lmo0135_150-169 […] (SEQ ID NO: 14997), lmo2558_533-553 […] (SEQ ID NO: 14984), lmo2360_289-306 […] (SEQ ID NO: 15009), lmo0186_285-303 […] (SEQ ID NO: 15005), lmo0582a_26-46 […] (SEQ ID NO: 15012), lmo0582b_12-25 […] (SEQ ID NO: 15013). To calculate the frequency of CD4^+ cells in each splenocyte sample from infected mice, an aliquot of cells from each mouse was stained for flow cytometric analysis. 1×10^6 cells were incubated with 2.4G2 Mouse Fc block in PBS/FBS (BD Pharmingen, 553142) for 20 min at 4° C. […] Fluorescently labeled cells were acquired on the FACSVerse flow cytometer (BD Biosciences) and analyzed using FlowJo Analysis Software (Tree Star).
# [2] = test system: ovarian carcinoma patients; conditions: poly-ICLC in combination with a NY-ESO-1 peptide vaccine (in addition to Montanide), phase 1; cited from earlier work
substance,measurement,setting,value
14980 (WNEKYAQAYPNVS; Listeria sp) [compound 14980],logFC (Log2 Fold Change Listeria 6 hr versus 10 min),[1],1.377
14981 (WNEKYAQAYPNVSAKI; Listeria sp) [compound 14981],logFC (Log2 Fold Change Listeria 6 hr versus 10 min),[1],1.202
14982 (VERWNEKYAQAYPNVS; Listeria sp) [compound 14982],logFC (Log2 Fold Change Listeria 6 hr versus 10 min),[1],0.2849
14983 (ERWNEKYAQAYPNVS; Listeria sp) [compound 14983],logFC (Log2 Fold Change Listeria 6 hr versus 10 min),[1],0.2069
14985 (VWTKPNKIEGAQKISALSTY; Listeria sp) [compound 14985],logFC (Log2 Fold Change Listeria 6 hr versus 10 min),[1],-0.2625
14995 (EVEDLNQPLAAHVNYE; Listeria sp) [compound 14995],logFC (Log2 Fold Change Listeria 6 hr versus 10 min),[1],0.1526
15016 (SNVNHVLDIGYGGGSNVKN; Listeria sp) [compound 15016],logFC (Log2 Fold Change Listeria 6 hr versus 10 min),[1],0.227
15017 (EVVYHNMKQDLE; Listeria sp) [compound 15017],logFC (Log2 Fold Change Listeria 6 hr versus 10 min),[1],-0.1708
15018 (DGLKAGEHFFAAGKDWPDAIYANGDEVAAGVMYH; Listeria sp) [compound 15018],logFC (Log2 Fold Change Listeria 6 hr versus 10 min),[1],-0.4271
15019 (EILLQKPNGERLTSFITL; Listeria sp) [compound 15019],logFC (Log2 Fold Change Listeria 6 hr versus 10 min),[1],-0.04842
15020 (GLLMAKKYKMNLTIVIVN; Listeria sp) [compound 15020],logFC (Log2 Fold Change Listeria 6 hr versus 10 min),[1],-0.6291
15022 (MNRVMLPLQQMGAKMHGK; Listeria sp) [compound 15022],logFC (Log2 Fold Change Listeria 6 hr versus 10 min),[1],0.1447
15023 (VMASDYTRGLSIRAIELVFENL; Listeria sp) [compound 15023],logFC (Log2 Fold Change Listeria 6 hr versus 10 min),[1],0.2507
15024 (YMEKHSVSRLVGAPP; Listeria sp) [compound 15024],logFC (Log2 Fold Change Listeria 6 hr versus 10 min),[1],-0.4422
15025 (KTASGIVLPDSAKEKPQSGKIVAVGSGRVLD; Listeria sp) [compound 15025],logFC (Log2 Fold Change Listeria 6 hr versus 10 min),[1],-0.4963
15026 (ESVYLSAQKENPRLFAKIETF; Listeria sp) [compound 15026],logFC (Log2 Fold Change Listeria 6 hr versus 10 min),[1],0.5951
15027 (RDNYLFQLYEATGTPIHPMSPF; Listeria sp) [compound 15027],logFC (Log2 Fold Change Listeria 6 hr versus 10 min),[1],-0.05049
15028 (ERWNEKYAQAYPNVSAKID; Listeria sp) [compound 15028],Peptidomics Hit,[1],..........[…]..........
15029 (ETQHYYGLPVADSAIDRGPL; Listeria sp) [compound 15029],Peptidomics Hit,[1],...APGQETQHYYGLPVADSAIDR.........
15030 (FRYVFDTAKATAASSYPGS; Listeria sp) [compound 15030],Peptidomics Hit,[1],......ADFRYVFDTAKATAASSYPG.......
15031 (DTTVKFTLPTVAPAFENTIKT; Listeria sp) [compound 15031],Peptidomics Hit,[1],AVDDTTVKFTLPTVAPAFENT
15032 (EKVVATPVSNVSTSSATSS; Listeria sp) [compound 15032],Peptidomics Hit,[1],GTKEKVVATPVSNVSTSSA
15033 (INQAYTGSTALSDGLNKM; Listeria sp) [compound 15033],Peptidomics Hit,[1],GGINQAYTGSTALSDGLN
15034 (GIAVTAFAAPTIASASTVVV; Listeria sp) [compound 15034],Peptidomics Hit,[1],IAVTAFAAPTIASA
15036 (TVRAKSKTYPVYINEFALED; Listeria sp) [compound 15036],Peptidomics Hit,[1],TVRAKSKTYPVYInEFALE
"ADFRYVFDTAKATAASSYPG (Listeria sp) [SEQ ID NO: 14986, Listeria peptide from lmo2185]",T cell response (IFN-γ ELISPOT),CD4 T cells,Robust responses
"APGQETQHYYGLPVADSAIDR (Listeria sp) [SEQ ID NO: 14984, Listeria peptide from lmo2558 (ami)]",T cell response (IFN-γ ELISPOT),CD4 T cells,Robust responses
Polyinosinic-Polycytidylic Acid-poly-L-lysine Carboxymethylcellulose [poly-ICLC],"patients showing induction of CD4+ and CD8+ T cell, as well as antibody responses to the peptide",[2],> 90%
"VDDTTVKFTLPTVAPAFENT (Listeria sp) [SEQ ID NO: 14997, Listeria peptide from lmo0135]",T cell response (IFN-γ ELISPOT),CD4 T cells,Robust responses
"WNEKYAQAYPNVSAKI (Listeria sp) [SEQ ID NO: 14981, Listeria peptide from lmo0202 (hly) (LLO)]",T cell response (IFN-γ ELISPOT),CD4 T cells,Robust responses
